Measurements as given in paper PMC5300155, “Biochemical and biophysical investigations of the interaction between human glucokinase and pro-apoptotic BAD” (PLoS ONE, 2017).
Primed or numbered codes have the meaning given here. No end group written: not given here. FITC′ = fluorescein isothiocyanate label

Legend:
[1] = molecular target: recombinant human BAD-GST fusion polypeptide (human) (UniProt Q92934); experiment: AUC; sedimentation velocity; single proteins or 1:1 molar mixtures incubated on ice 30 min; BAD buffer pH 8.5; 20°C
[2] = molecular target: recombinant human BAD-GST fusion polypeptide (human) (UniProt Q92934); experiment: ITC; Bcl-xL (100 μM) titrated in 4 μL injections into BAD-GST (10–18 μM) in the cell; 25°C; BAD buffer (0.1 M Tris, 0.1 M KCl, 0.5 M arginine, 2.5 mM CHAPS, 5 mM TCEP, 10% glycerol, pH 8.5)
[3] = molecular target: GST; experiment: AUC; sedimentation velocity; single proteins or 1:1 molar mixtures incubated on ice 30 min; BAD buffer pH 8.5; 20°C
[4] = molecular target: recombinant human pancreatic glucokinase (human) (UniProt P35557)
[5] = molecular target: recombinant human Bcl-xL, Δ45–84, Δ210–233 variant (human) (UniProt Q07817); experiment: fluorescence polarisation; competition: 200 nM f-BH3, 50 nM Bcl-xL, BAD forms varied 0–50 μM; room temperature
[6] = molecular target: recombinant human BAD-GST fusion polypeptide (human) (UniProt Q92934); experiment: SEC; HiPrep 16/60 Sephacryl S-200 HR, calibrated; single proteins or equimolar mixtures incubated on ice 30 min; BAD buffer pH 8.5; 4°C
[7] = molecular target: recombinant human pancreatic glucokinase (human) (UniProt P35557); remark: listed apart in the source
[8] = molecular target: recombinant human pancreatic glucokinase (human) (UniProt P35557); remark: listed apart in the source
[9] = molecular target: T1, recombinant human Bcl-xL, Δ45–84, Δ210–233 variant (human, UniProt Q07817-1 1-209, Δ45–84); experiment: fluorescence polarisation; 15 nM FITC peptide, Bcl-xL varied 0–2.25 μM; BAD buffer mixed with phosphate assay buffer pH 7.4; room temperature; settings: both partners purified
T1 construct: Bcl-xL, human; loop 45-84 deleted and C-terminal residues 210-233 lacking; also called soluble, recombinant Bcl-xL

[10] = test system: BAD-knockout hepatocytes; settings: ref [9]; cited from earlier work
Source text: Phosphorylation of BAD modulates its participation in apoptosis and glucose metabolism. High glucose concentrations stimulate BAD phosphorylation at three serine residues, resulting in reduced pro-apoptotic activity. In particular, phosphorylation at Ser155, within the BH3 domain of murine BAD, prevents interaction with Bcl-xL, thereby quenching BAD’s apoptotic activity. […] Moreover, i ...

[11] = molecular target: T2, Bcl-xL (Homo sapiens, UniProt Q07817, DEL45-84); experiment: Analytical ultracentrifugation sedimentation velocity of 1:1 mixture BAD-GST and Bcl-xL; type: binding; settings: 1:1 mixture of BAD-GST and Bcl-xL, 20°C, 50,000 x g, BAD buffer pH 8.5
T2 construct: made in house
Method: Sedimentation velocity experiments were conducted with an Optima XLI Ultracentrifuge (Beckman Coulter) using a four-hole rotor with three 420 μL samples in standard double-sector Epon centerpieces equipped with sapphire windows. Absorbance and interference data were collected simultaneously. Size-exclusion purified proteins were concentrated to OD280 nm = 0.3–1.0 prior to centrifugation. For complex formation, proteins were mixed in a 1:1 molar ratio in BAD buffer (0.1 M Tris, 0.1 M KCl, 0.5 M arginine, 2.5 mM CHAPS, 5 mM TCEP, 10% glycerol, pH 8.5) and incubated on ice 30 min prior to the start of the experiment. Experiments were carried out at 20°C and 50,000 x g. Data were analyzed with Ultrascan III software using a minimum of 70 scans per sample for analysis. Van Holde-Weischet analysis was performed to obtain S20,W values.

[12] = Circular dichroism spectroscopy (secondary structure); type: physicochemical; settings: far UV CD, 25°C, pH 7.8, 3–15 μM, CDPro
Method: Proteins were dialyzed overnight into potassium phosphate buffer (50 mM, pH 7.8) containing KCl (50 mM), glycerol (5% v/v), and TCEP (4 mM). CD spectra were recorded on an AVIV 202 CD spectrometer at 25°C with protein concentrations ranging from 3–15 μM. Spectra were recorded from 200–260 nm in 10 mm pathlength cuvettes using a 1 nm step resolution and 3 s integration time. Three scans were recorded per sample, averaged, and baseline subtracted with appropriate buffer controls. CD signals were converted to molar ellipticity and deconvoluted using CDPro Software.

With “recombinant human Bcl-xL, Δ45–84, Δ210–233 variant (from UniProt Q07817-1 1-209) (domain or fragment)” the stoichiometry N (Bcl-xL per BAD-GST dimer) [1] was 2 and the Kd [2] was 7 nM.

Work on GST (natural protein) yielded a stoichiometry N [3] of 2.

“recombinant human BAD-GST fusion polypeptide (from UniProt Q92934 1-168) (natural protein)” showed a percent increase in GCK rate, glucose 0.5–1.0 mM, largest at 0.8 mM glucose with BAD-GST ≥ 2 μM [4] of 10%, an IC50 [5] of 130 nM and a stoichiometry N [1] of 2. It also gave a stoichiometry N [6] of 2.

“BAD-GST phosphorylated in vitro with PKAc (from UniProt Q92934 1-168) (natural protein)” gave an increase in GCK activity over unmodified BAD-GST at 1.0 mM glucose [7] of 5%, an increase in GCK activity at glucose below the K0.5 value with phosphorylated BAD (> 2 μM) [8] of 15% and an IC50 [5] of 1600 nM.

B1: FITC-labeled 21-residue peptide containing the BH3 domain of BAD (peptide)
peptide: NLWAAQRYGRELRRMSDK(FITC′)FVD
notes: BH3 domain of BAD, human; also called f-BH3; fluorescent BH3 peptide; source: synthetic peptide (Peptide2.0, >95%)
In the case of B1, the Kd [9] is reported as 180 nM.

B2: S155D BAD variant: phosphomimic murine BAD variant, ref 9 (protein, UniProt Q61337 1-204, looked up, variant S155D)
Bcl2-associated agonist of …: MGTPKQPSLAPAHALGLRKSDPGIRSLGSDAGGRRWRPAAQSMFQIPEFEPSEQEDASATDRGLGPSLTEDQPGPYLAPGLLGSNIHQQGRAATNSHHGGAGAMETRSRHSSYPAGTEEDEGMEEELSPFRGRSRSAPPNLWAAQRYGRELRRMDDEFEGSFKGLPRPKSAGTATQMRQSAGWTRIIQSWWDRNLGKGGSTPSQ
For B2, the “Effect on GCK activity in hepatocytes” value [10] is given as “stimulates GCK activity in hepatocytes” and the “Restoration of normal glycolytic metabolism in BAD-knockout hepatocytes” value [10] is given as “normal glycolytic metabolism can be restored”.

B3: Bcl-xL: recombinant human Bcl-xL Δ45–84, Δ210–233 variant (protein)
chain: MSQSNRELVVDFLSYKLSQKGYSWSQFSDVEENRTEAPEGTESEAVKQALREAGDEFELRYRRAFSDLTSQLHITPGTAYQSFEQVVNELFRDGVNWGRIVAFFSFGGALCVESVDKEMQVLVSRIAAWMATYLNDHLEPWIQENGGWDTFVELYGNNAAAESRKGQER
modifications: left off: His tag (from the nickel affinity chromatography), end not stated, state not stated
notes: recombinant human Bcl-xL Δ45–84, Δ210–233 variant
With B3 the Sedimentation coefficient [11] was 1.3, the Random coil content [12] was “roughly 30%” and the α-helical content [12] was 43%. The β-sheet content [12] was 14%.
